Assay results reported in paper PMC12297659, “In situ structure of the mouse sperm central apparatus reveals mechanistic insights into asthenozoospermia” (Cell Research, 2025).

Columns and labels:
Assay in all cases: cryo-EM structure; in situ cryo-electron tomography with subtomogram averaging of about 200 nm cryo-FIB lamellae of wild-type mouse sperm; local maps of 5.5 Å to 18 Å; AlphaFold2 models fitted into the density
[1] = molecular target: SPATA17 (mouse (endogenous in sperm)) (UniProt Q9D552)
SPATA17 (mouse (endogenous in sperm)), sequence (Q9D552 whole entry): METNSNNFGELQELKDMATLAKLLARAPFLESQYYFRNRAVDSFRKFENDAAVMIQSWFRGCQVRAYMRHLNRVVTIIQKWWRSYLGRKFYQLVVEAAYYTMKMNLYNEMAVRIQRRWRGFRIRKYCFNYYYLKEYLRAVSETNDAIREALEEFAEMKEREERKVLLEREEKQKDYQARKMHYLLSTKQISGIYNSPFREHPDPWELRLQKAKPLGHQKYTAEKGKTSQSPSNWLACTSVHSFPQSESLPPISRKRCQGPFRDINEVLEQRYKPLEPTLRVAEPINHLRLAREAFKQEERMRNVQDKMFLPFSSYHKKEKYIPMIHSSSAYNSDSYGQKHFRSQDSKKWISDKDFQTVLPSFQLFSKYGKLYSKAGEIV

[2] = molecular target: GMCL1 (BTBD16) (mouse (endogenous in sperm)) (UniProt Q920G9)
[3] = molecular target: the molecule itself

GMCL1 (BTBD16), sequence (Q920G9 whole entry): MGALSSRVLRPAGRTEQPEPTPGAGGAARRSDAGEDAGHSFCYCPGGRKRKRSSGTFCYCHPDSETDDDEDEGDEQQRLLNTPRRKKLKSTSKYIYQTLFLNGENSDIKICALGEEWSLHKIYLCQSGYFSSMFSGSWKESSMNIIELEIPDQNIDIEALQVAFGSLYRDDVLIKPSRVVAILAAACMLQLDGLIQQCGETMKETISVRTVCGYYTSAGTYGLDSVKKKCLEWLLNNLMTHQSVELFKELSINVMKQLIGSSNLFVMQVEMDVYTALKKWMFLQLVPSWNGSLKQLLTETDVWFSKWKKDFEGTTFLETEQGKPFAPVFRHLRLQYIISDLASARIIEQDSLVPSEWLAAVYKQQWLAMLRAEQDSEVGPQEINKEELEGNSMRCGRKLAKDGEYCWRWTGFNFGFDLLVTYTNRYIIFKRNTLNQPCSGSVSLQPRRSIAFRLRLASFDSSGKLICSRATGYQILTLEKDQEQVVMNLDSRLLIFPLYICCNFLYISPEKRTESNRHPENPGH

Molecule | stoichiometry N [3] | other results
calmodulin (CaM) (from UniProt P0DP26 1-149) (natural protein) | – | stoichiometry N [1]: 3
GMCL1 (BTBD16) (from UniProt Q920G9 1-524) (natural protein) | – | stoichiometry N [2]: 2
CFAP70 (natural protein, mouse (endogenous in sperm), UniProt D3YVL2 1-1141, looked up, CFAP70, mouse; The CFAP70 dimer was predicted with AlphaFold2 Multimer before fitting; source: endogenous, in intact mouse sperm (cryo-FIB lamellae)) MDQTSSTTKIVHITVTNGYDLKGFKGDTPVTFVRAEFNQTVLGDSSKVTVSPEGTAKYNFTSNIDLSPDGGGALDDLAHKPLFLTVTEVLPKEKKQKDEKTLILGQAVVDLLPLLEGEESFETTVPLHPVPGSPLETPLPGSKQCSLDVKVFVAEPLLTPAQVSASNLLKVTLEAAYSVPESFIPVGPQQNYMVGLQVPSVGEKDYTMIFKNGNLKLGGEKEPVPRPKKWPIANILAPGASNIPDEFIVGGPYEEEEGELNHPEDREFRNQAECTKKRIVWDLESRCFLHPFAVASFQKRIADCRLWPVEITRVPLVVMPKAKPGKLEKIDDENQLSFHGVAYINMVPLLYPGVKKIRGAFHVYPYLDGTVFEKTKCLFSLFRDTGHHLVQNNKAGGLNSPLSKPLSKNLKEEKPGKDKDTEGRPRLGELQAPSIKSQSSDTPLESEAPLSHNLEGQQYIEAGTYIVLEIQLEKALVPKRMPEELARRVKEMIPPRPPLTRRTGGAQKAVSDYHTQIKSISRAILNEYYRMFGKQGPKLESDIDNETMEERKCQLNYELNCSGKYFAFKEQLKHAVVKIVREKYLKTTAFESQEELQTFISELYVFLVDQMHVALNQAVPDDVPSSTSTIQTSSEQLRLFAFEAEVNEKFEIAAMYYEERLVREPQNLENWLDYGAFCLLTEDNIKAQECFRKALSLNESHVDSLLLCGVLAILLENYEQAEIFFEDATCLEPTNVIAWTLLGLFYEIQNNDIRMEMAFHEAFKQLQARTLQTKLKSTVTIENMEEGVKVEPSFGPWGVVQESTTAIKTEGLSGMRPQSSHQLSPHTNMELHPQPQGPNTALSSLDEFLEESPKAQSESQEPMATGQPLEPSLVQRSSNALLKELTSKKDISKCQDSSAFSPPTQHVIAQPPVTIFMETIRFLMKVNAVQFVHRVLAHELLCPQGGPSCEYYLVLAQTHLLKKDFAKTEEYLQQAAQMDYLNPNVWGVKGHLYFLSGNHAEAKECYERTISFVVDASEMHFIFLRLGHIYLEEKEYENAKRTYMHACKRSPSCLTWLGLGIACYRLEELTEAEDALSEANALNNCNAEVWAYLALVCLKVGRQLEAEQAYKYTIKLKLKDQALLEEIHTVQEMVGFGNPSF | 2 | –
SPAG16 (natural protein, mouse (endogenous in sperm), UniProt Q8K450 1-639, looked up, SPAG16, mouse, with a coiled-coil domain and a C-terminal β-propeller domain; Adjacent copies dimerise through the coiled-coil domain; also called PF20 homolog; source: endogenous, in intact mouse sperm (cryo-FIB lamellae)) MAAPSGVPPLRVLEELGIGLSPTGEVTEAVTSEGAYYLEQVTITETSEDECEYEEIPDDNFSIPEGEEDLEKAIHIIGEQARDIHILEQQTILPARNVMQEAIEDFLCNFLIKMGMTRTLDCFQAEWYELIQKKGSDFKGLGNVPDVYSQVMLLETENKNLKKELKHFKQAAEKAKEDLLRTQKERDFHRMHHKRIVQEKNKLIADLKGLKLHYASYEPTIRVLHEKHHALLKEKMLTSLERDRAVGKISGLQATLKNIDMGHIQVPVIKGSYESASITRESGDRAGHSCEKENSSEGPTQKSLREAREEVGYKSKLKNEKKDSEFPVDMQPDPNVTSCTENVSAAKFDYKLNNIFRLHELPVSCIVMHPCRDYLISCSEDRLWKMVGLPQGNVLLTGSGHTDWLSGCCFHPSGSKLATSSGDSTIKLWDLNKGECTLTLEGHNHAVWSCTWHSCGDFVASASLDMTSKIWDVNSERCRYTLYGHTDSVNSIEFFPFSNILLTASADKTLSVWDARTGKCEQSLYGHMHSVNDATFTPRGHIIASCDARGVTKLWDFRKLIPIVSIDVGPSSGNEVNFDQSGRVLAQASANGIIHLLDLKSGQIHKLVGHESEVHSVVFSHLGENLYSGGSDGTIRLWI | 2 | –
